# Measured values published in paper PMC11321042, “An invariant C-terminal tryptophan in McdB mediates its interaction and positioning function with carboxysomes” (Molecular Biology of the Cell, 2024).
# B1: Maintenance of carboxysome distribution protein B (McdB) from Synechococcus elongatus PCC 7942, wild type (natural protein, UniProt Q8GJM6 1-152, looked up)
# chain: MTDAFDRLKKRSRTPIAREGSLTTGPELSDRPLQLLPREFETFCDRYAVHAGDVIEAALDLVLLDPDLQQRLLQRLRQGNGSDRVWLGTACPRSWQQQLQQQAQDQGLSEADLLQEAIAQRLDLVLGQTTLREEVTLLRQELDQLKRKLHGW
# notes: McdB of Synechococcus elongatus PCC 7942; also called Se McdB; β-McdB; source: E. coli BL21-AI, purified (HisTrap, Ulp1 cleavage, SEC); not shown: His-SUMO, N-terminal, cleaved
# B2: Se McdB[∆W152] (natural protein, Synechococcus elongatus PCC 7942, UniProt Q8GJM6 1-152, looked up)
# chain: MTDAFDRLKKRSRTPIAREGSLTTGPELSDRPLQLLPREFETFCDRYAVHAGDVIEAALDLVLLDPDLQQRLLQRLRQGNGSDRVWLGTACPRSWQQQLQQQAQDQGLSEADLLQEAIAQRLDLVLGQTTLREEVTLLRQELDQLKRKLHG
# notes: McdB of Synechococcus elongatus PCC 7942 with the final C-terminal tryptophan W152 deleted; Parent is m1; source: E. coli BL21-AI, purified (HisTrap, Ulp1 cleavage, SEC); not shown: His-SUMO, N-terminal, cleaved
# Target: the molecule itself
# Test: SEC-MALS; 50 µl at 1.5 mg/ml on a Shodex PROTEIN KW-804 column, 0.4 ml/min, 150 mM KCl, 20 mM Tris-HCl pH 8.2
row,Protein,stoichiometry N
1,B1,6
2,B2,6
